The results in this text go back to patent US7666989B2 (priority 2003, dated 2010).

Series [1] is described as follows: Side or toxic effects in treated tumor-bearing nude mice. Type of series: in vivo, BALB/c-nu nude mice. Conditions: treated nude mice versus negative control; body weight and viability. An excerpt:
No substantial difference in the parameters concerning the living status of mice, such as body weight and viability of the treated groups were observed compared with those of the negative control group, except that the sizes of tumor in the treated mice were smaller. […] Therefore, CPT may be used as an effective and safe medicament for treating cancers. CPT is both theoretically and industrially important and has a bright future in the market.

Series [2] has as its system human colon cancer COLO 205. Conditions: COLO 205 xenograft; for Body Weight (g) End / RTV / Tumor volume (mm^3) End / Tumor weight / Body Weight (g) Start / Tumor volume (mm^3) Start / Inhibition rate (%): 15 injections; for Body Weight (g) Start / Tumor volume (mm^3) Start: baseline; for Inhibition rate (%): by tumor weight. An excerpt:
In this example, the animals used were BALB/c-nu nude mice, 6-8 weeks old. For each experiment, all animals were of the same sex.
Tumor cell lines: human brain glioma U251, human lung cancer cell line NCI-H460, human colon cancer cell line COLO205 were inoculated from in vitro culture into nude mice subcutaneously, the tumors were subcultured and kept.
Experimental Procedures: well-grown nude mice carrying well-grown tumors were selected and sacrificed by disjointing neck vertebra. The tumors were removed aseptically and were cut into pieces having a diameter of 2-3 mm by a scalpel. The pieces were inoculated into the axilla of nude mice subcutaneously by a needle. […] The length and width of tumors were measured by a vernier caliper. The animals were then grouped based their tumor sizes. Each group included seven to eight animals.
The length, width of the tumor and the body weight of the mice were measured twice per week. The tumor volume (TV) and relative tumor volume (RTV) were calculated. A graph indicating the changes of tumor size was plotted. At the end of this experiment, the tumors were taken out and weighed after the mice were sacrificed, and the inhibition rates of the medicament on tumor growth were calculated.
The formula for calculating tumor volume (TV) is: length×width^2÷2.
The formula for calculating relative tumor volume (RTV) is: Vt/Vo (wherein Vo is the TV value measured when the administration is started, Vt is the TV value measured after that).
T-test was used to determine the statistical difference of tumor weights, tumor volumes and RTV etc. between different groups of animal. The index used for evaluating the anti-tumor activity is the relative tumor growth rate T/C (%), the formula for which is: […]
The evaluation standard for efficacy:
T/C (%)>60 is ineffective;
T/C (%)≦60 and P<0.05 after statistical analysis is effective.
Injectable hydroxycamptothecin (trade name: Xi Su, Wuhan Lishizhen Pharmaceuticals Inc., Huangshi Lishizhen Pharmaceuticals Group, P. R. China) was used as positive control, administered by intraperitoneal injection at the dose of 1 mg/kg, once per day. The administration was terminated after 15 consecutive days of administration. […] A single administration of 80 mg/kg hydroxycamptothecin was further given after two weeks. CPT was given to three treatment groups at the doses of 1.7 mg/kg, 5.0 mg/kg, 15.0 mg/kg respectively by intraperitoneal injection, once per day. The treatment contained a total of 15 injections.

The nature of series [3]: Water solubility of the end product. It is filed as physicochemical. Conditions: purified protein, white powder. An excerpt: Finally, the protein was purified by an ion exchange column and a gel filtration column Superdex 200 (Pharmacia) mounted in an AKTA HPLC system (Pharmacia). […] The end product was a white powder and was water soluble.
Setting [4] is: CPT 1.7 mg/kg i.p. once per day.
The mark [5] stands for this setting: CPT 5.0 mg/kg i.p. once per day.

Several values for one entry are separate records, joined by “and”; a condition that tells them apart may be missing. Equal values may be shown once. Read-outs that look alike come from different tables or passages of the source. Marks after values point to notes of the source that are not given here.

B1: CPT: human recombinant circularly permuted TRAIL (CPT), which consists of 166 amino acid residues; SEQ ID No:2 (protein)
chain: TLSSPNSKNEKALGRKINSWESSRSGHSFLSNLHLRNGELVIHEKGFYYIYSQTYFRFQEEIKENTKNDKQMVQYIYKYTSYPDPILLMKSARNSCWSKDAEYGLYSIYQGGIFELKENDRIFVSVTNEHLIDMDHEASFFGAFLVGGGGGGVAAHITGTRGRSNT
modifications: Synthetically generated peptide
On to B1, for which, in series [1], the “side or toxic effects on animals” value is “did not exhibit any apparent side or toxic effects”. Moreover, in series [2] (setting [4]), the “Body Weight (g) End” value was found to be 20.6 ± 3.0 g, the RTV is given as 1.62 ± 0.62, the “Tumor volume (mm^3) End” value is reported as 582 ± 408** mm^3 and the “Tumor weight” value is reported as 0.40 ± 0.33 g. In series [2] (setting [4]), the “Body Weight (g) Start” value came to 20.6 ± 1.1 g, the “Tumor volume (mm^3) Start” value is on record as 205 ± 47 mm^3 and the “Inhibition rate (%)” value is recorded as 79.6%. Further, in series [2] (setting [5]), the “Body Weight (g) End” value is 21.4 ± 1.2 g, the RTV is listed as 0.91 ± 0.35, the “Tumor volume (mm^3) End” value is 314 ± 175** mm^3 and the “Tumor weight” value amounted to 0.18 ± 0.15 g. In series [2] (setting [5]), the “Body Weight (g) Start” value was 20.2 ± 0.8 g; the “Tumor volume (mm^3) Start” value worked out at 180 ± 63 mm^3; the “Inhibition rate (%)” value was 90.8% and 90.9%. For the same molecule, in series [2] (CPT 15 mg/kg i.p. once per day), the “Body Weight (g) End” value turned out to be 21.1 ± 2.4 g, the RTV came out at 0.33 ± 0.27, the “Tumor volume (mm^3) End” value is reported as 52 ± 53** mm^3 and the “Tumor weight” value is 0.05 ± 0.05 g. Further, in series [2] (CPT 15 mg/kg i.p. once per day), the “Body Weight (g) Start” value amounted to 20.0 ± 0.5 g; the “Tumor volume (mm^3) Start” value is given as 192 ± 81 mm^3; the “Inhibition rate (%)” value was 97.4% and 97.8%. Further, the “fraction of animals in which no tumor was found” value in series [2] (high-dose CPT (15 mg/kg/day, 15 injections), four weeks after the administration was stopped) is listed as “⅓”. The “water solubility of the end product” value in series [3] is “water soluble”.
